Paper PMC5726920

Key:
[1] = target: 10 kDa heat shock protein; experiment: native MS
[2] = target: triosephosphate isomerase, isoform 2, initiator methionine removed; experiment: native MS

triosephosphate isomerase, isoform 2, initiator methionine removed (enzyme), sequence (P60174 2-249): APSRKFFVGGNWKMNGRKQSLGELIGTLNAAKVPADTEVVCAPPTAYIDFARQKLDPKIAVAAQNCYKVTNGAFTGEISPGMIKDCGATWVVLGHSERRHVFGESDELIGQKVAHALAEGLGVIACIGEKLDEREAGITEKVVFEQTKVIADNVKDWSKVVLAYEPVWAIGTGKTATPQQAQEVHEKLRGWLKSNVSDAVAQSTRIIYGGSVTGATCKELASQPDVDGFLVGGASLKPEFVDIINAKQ

Work on “10 kDa heat shock protein (natural protein)” yielded a stoichiometry N [1] of 7.
Substance “triosephosphate isomerase, isoform 2, initiator methionine removed (enzyme)” has a stoichiometry N [2] of 2.
